This is an account of results in patent US20030013150.

The target of this series is plasminogen.
Chain of plasminogen (P00747 20-810): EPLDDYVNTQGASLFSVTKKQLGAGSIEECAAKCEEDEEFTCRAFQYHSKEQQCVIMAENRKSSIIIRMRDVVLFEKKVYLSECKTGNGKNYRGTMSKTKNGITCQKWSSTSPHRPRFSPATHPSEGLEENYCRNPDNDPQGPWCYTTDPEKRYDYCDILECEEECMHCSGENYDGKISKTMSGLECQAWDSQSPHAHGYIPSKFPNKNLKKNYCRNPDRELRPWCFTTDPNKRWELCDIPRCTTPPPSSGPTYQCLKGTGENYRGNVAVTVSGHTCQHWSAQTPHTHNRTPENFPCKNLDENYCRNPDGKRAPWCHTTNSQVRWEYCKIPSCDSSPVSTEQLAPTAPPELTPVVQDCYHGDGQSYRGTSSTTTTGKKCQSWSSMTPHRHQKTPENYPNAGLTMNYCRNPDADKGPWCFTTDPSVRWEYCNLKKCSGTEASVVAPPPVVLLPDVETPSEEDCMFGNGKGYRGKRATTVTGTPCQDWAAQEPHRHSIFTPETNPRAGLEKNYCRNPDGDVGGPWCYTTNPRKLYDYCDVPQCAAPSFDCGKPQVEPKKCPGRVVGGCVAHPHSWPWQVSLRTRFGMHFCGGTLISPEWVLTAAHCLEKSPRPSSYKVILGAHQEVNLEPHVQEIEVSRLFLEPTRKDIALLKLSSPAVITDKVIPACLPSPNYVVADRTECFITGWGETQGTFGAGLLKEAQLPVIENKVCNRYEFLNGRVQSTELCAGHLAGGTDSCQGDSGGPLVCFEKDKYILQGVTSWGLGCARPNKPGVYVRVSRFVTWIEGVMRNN

B1: standard melanoma tPA 86/670 (protein)
chain: SYQVICRDEKTQMIYQQHQSWLRPVLRSNRVEYCWCNSGRAQCHSVPVKSCSEPRCFNGGTCQQALYFSDFVCQCPEGFAGKCCEIDTRATCYEDQGISYRGTWSTAESGAECTNWNSSALAQKPYSGRRPDAIRLGLGNHNYCRNPDRDSKPWCYVFKAGKYSSEFCSTPACSEGNSDCYFGNGSAYRGTHSLTESGASCLPWNSMILIGKVYTAQNPSAQALGLGKHNYCRNPDGDAKPWCHVLKNRRLTWEYCDVPSCSTCGLRQYSQPQFRIKGGLFADIASHPWQAAIFAKHRRSPGERFLCGGILISSCWILSAAHCFQERFPPHHLTVILGRTYRVVPGEEEQKFEVEKYIVHKEFDDDTYDNDIALLQLKSDSSRCAQESSVVRTVCLPPADLQLPDWTECELSGYGKHEALSPFYSERLKEAHVRLYPSSRCTSQHLLNRTVTDNMLCAGDTRSGGPQANLHDACQGDSGGPLVCLNDGRMTLVGIISWGLGCGQKDVPGVYTKVTNYLDWIRDNMRP
Regarding B1, the “copolymerized plasminogen polyacrylamide gel electrophoresis (clearing zones)” value is “The positive control lane of standard melanoma tPA also demonstrated enzymatic activity at 66 and 72 kDa positions”.

B2: recombinant-K2S (r-K2S) expressed in non-gpIII fusion form in E. coli XM[K2S] (protein)
chain: SEGNSDCYFGNGSAYRGTHSLTESGASCLPWNSMILIGKVYTAQNPSAQALGLGKHNYCRNPDGDAKPWCHVLKNRRLTWEYCDVPSCSTCGLRQYSQPQFRIKGGLFADIASHPWQAAIFAKHRRSPGERFLCGGILISSCWILSAAHCFQERFPPHHLTVILGRTYRVVPGEEEQKFEVEKYIVHKEFDDDTYDNDIALLQLKSDSSRCAQESSVVRTVCLPPADLQLPDWTECELSGYGKHEALSPFYSERLKEAHVRLYPSSRCTSQHLLNRTVTDNMLCAGDTRSGGPQANLHDACQGDSGGPLVCLNDGRMTLVGIISWGLGCGQKDVPGVYTKVTNYLDWIRDNMRP
Regarding B2, the “copolymerized plasminogen polyacrylamide gel electrophoresis (clearing zones)” value is “Transparent areas of serine protease digested plasminogen were observed only in the ammonium sulfate precipitated culture supernatants of E. coli XM[K2S] at 34 and 37 kDa postions”; the “fibrinogen-dependent enzymatic activity (amidolytic assay, plasminogen and S-2251)” value is “The culture supernatant r-K2S gave the fibrinogen-dependent enzymatic activity of 7 IU/ml”; the “fibrinogen-dependent enzymatic activity of the periplasmic r-K2S preparation (amidolytic assay, plasminogen and S-2251)” value is listed as “notably low enzymatic activity, which was below the sensitivity of the test (0.25 IU/ml)”.
